Measurements as given in article PMC4613710, “A biophysical study on molecular physiology of the uncoupling proteins of the central nervous system” (Bioscience Reports, 2015).

B1: human uncoupling protein 4 (His6-ENLYFQG-hUCP4) (natural protein, UniProt O95847 1-323, looked up)
chain: MSVPEEEERLLPLTQRWPRASKFLLSGCAATVAELATFPLDLTKTRLQMQGEAALARLGDGARESAPYRGMVRTALGIIEEEGFLKLWQGVTPAIYRHVVYSGGRMVTYEHLREVVFGKSEDEHYPLWKSVIGGMMAGVIGQFLANPTDLVKVQMQMEGKRKLEGKPLRFRGVHHAFAKILAEGGIRGLWAGWVPNIQRAALVNMGDLTTYDTVKHYLVLNTPLEDNIMTHGLSSLCSGLVASILGTPADVIKSRIMNQPRDKQGRGLLYKSSTDCLIQAVQGEGFMSLYKGFLPSWLRMTPWSMVFWLTYEKIREMSGVSPF
notes: uncoupling protein 4 (UCP4), human; cDNA synthesized by GenScript, sub-cloned into pET26b(+); Tetramer is the predominant form in POPC liposomes without SDS; dimers and a few monomers at 83 mM SDS; also called neuronal UCP
B2: human uncoupling protein 2 (His6-ENLYFQG-hUCP2) (natural protein, UniProt P55851 1-309, looked up)
chain: MVGFKATDVPPTATVKFLGAGTAACIADLITFPLDTAKVRLQIQGESQGPVRATASAQYRGVMGTILTMVRTEGPRSLYNGLVAGLQRQMSFASVRIGLYDSVKQFYTKGSEHASIGSRLLAGSTTGALAVAVAQPTDVVKVRFQAQARAGGGRRYQSTVNAYKTIAREEGFRGLWKGTSPNVARNAIVNCAELVTYDLIKDALLKANLMTDDLPCHFTSAFGAGFCTTVIASPVDVVKTRYMNSALGQYSSAGHCALTMLQKEGPRAFYKGFMPSFLRLGSWNVVMFVTYEQLKRALMAACTSREAPF
notes: uncoupling protein 2 (UCP2), human; cDNA clone pET21a-UCP2 sub-cloned into pET26b(+); Tetramer is the predominant form in POPC liposomes without SDS; dimers and a few monomers at 83 mM SDS; PDB 2LCK is only viewed as a model of UCP2; also called neuronal UCP
B3: human uncoupling protein 5 (His6-ENLYFQG-hUCP5) (natural protein, UniProt O95258 1-325, looked up)
chain: MGIFPGIILIFLRVKFATAAVIVSGHQKSTTVSHEMSGLNWKPFVYGGLASIVAEFGTFPVDLTKTRLQVQGQSIDARFKEIKYRGMFHALFRICKEEGVLALYSGIAPALLRQASYGTIKIGIYQSLKRLFVERLEDETLLINMICGVVSGVISSTIANPTDVLKIRMQAQGSLFQGSMIGSFIDIYQQEGTRGLWRGVVPTAQRAAIVVGVELPVYDITKKHLILSGMMGDTILTHFVSSFTCGLAGALASNPVDVVRTRMMNQRAIVGHVDLYKGTVDGILKMWKHEGFFALYKGFWPNWLRLGPWNIIFFITYEQLKRLQI
notes: uncoupling protein 5 (UCP5), human; cDNA bought from A.T.C.C., sub-cloned into pET26b(+); Tetramer is the predominant form in POPC liposomes without SDS; dimers and a few monomers at 83 mM SDS; also called neuronal UCP

How the values were obtained:
[1] = target: the molecule itself; experiment: native gel or EMSA; semi-native PAGE (12% gel), UCP reconstituted in POPC liposomes titrated with SDS to 83 mM (about 40x CMC), Coomassie stain; bands identified by LC-MS/MS
[2] = target: the molecule itself; experiment: native gel or EMSA; semi-native PAGE (12% gel, 2 mM SDS in running buffer only), UCP reconstituted in POPC liposomes, loading buffer lacking SDS, Coomassie stain; bands identified by LC-MS/MS
[3] = target: the molecule itself; experiment: far-UV CD spectroscopy, SDS titration; UCP reconstituted in POPC liposomes titrated with SDS (0-83 mM); normalised theta208/theta222 against [SDS], Hill fit; K1/2 = [SDS] at 50% protein dissociation; tetramer to dimers
[4] = target: the molecule itself; experiment: other fluorescence titration; Trp fluorescence (excitation 295 nm, 25 C) of UCP in POPC liposomes titrated with SDS (0-83.9 mM); maximum intensity against [SDS], Hill fit; Ka1/2 low SDS range (0-10 mM): tetramer to tight dimers; Kb1/2 high SDS range (10-100 mM): tight dimers to loose dimers and monomers

Protein | stoichiometry N [1] | stoichiometry N [2] | CD K1/2 ([SDS] at 50% protein dissociation) [3] | Fl Ka1/2 (first transition, tetramer to dimers, [SDS]) [4] | Fl Kb1/2 (second transition, dimers to loose dimers and monomers, [SDS]) [4]
B1 | 2 | 4 | 1 ± 0.1 mM SDS | 0.6 ± 0.1 mM SDS | 9.8 ± 0.3 mM SDS
B2 | 2 | 4 | 1.1 ± 0.1 mM SDS | 0.61 ± 0.1 mM SDS | 7.1 ± 0.3 mM SDS
B3 | 2 | 4 | 1 ± 0.1 mM SDS | 0.6 ± 0.1 mM SDS | 8.9 ± 0.2 mM SDS
